According to paper PMC10248533 (The Journal of Biological Chemistry, 2023):

Target: the molecule itself
Assay: native MS; 50 μM protein exchanged into 200 mM ammonium acetate pH 7.4; nano electrospray, Q Exactive UHMR

B1: AtGet3dΔ1–57 from His8-SUMO-GSx2-AtGet3dΔ1–57 (native mass spectrometry sample) (natural protein, Arabidopsis thaliana, UniProt Q6DYE4 58-455, looked up)
chain: TKFVTFLGKGGSGKTTAAVFAAQHYALAGLSTCLVIHNQDPSAEFLLGSKIGTSPTLINDNLSVIRLETTKMLLEPLKQLKQADARLNMTQGVLEGVVGEELGVLPGMDSIFSMLELERLVGFFRQATRKNHKGKPFDVIIYDGISTEETLRMIGLSSKTRLYAKYLRSLAEKTDLGRLTSPSIMRFVDESMNINSNKSPFDGMTSPAMWDTLERFLETGASAWRDPERFRSFLVMDPNNPMSVKAALRYWGCTVQAGSHVSGAFAISSSHLTSQIPKADFVPLPFASASVPFTITGLDWDKILLDQANSSIRELLSETVSHGTSLTQTVMFDTAKKLVTLFMPGFEKSEIKLYQYRGGSELLIEAGDQRRVIHLPSQIQGKVGGAKFVDRSLIVTMR
notes: Get3d, Arabidopsis thaliana, UniProt Q6DYE4, without the first 57 amino acids (chloroplast transit peptide); Dialysed with Ulp1 after Ni-NTA; the GSx2 linker between SUMO and AtGet3d probably stays on the N-terminus after cleavage (surmised); Copurifies with small molecules of about 750 Da; source: E. coli NiCo21(DE3), purified (Ni-NTA, Ulp1 digestion, Superdex 200 SEC); not shown: His8, …
stoichiometry N: 2
